According to EP4696711A1 (Jiangsu Hengrui Pharmaceuticals Co., Ltd., dated 2024):
Blank lines part the entries; values can stand above or below the binder they belong to.

Molecular target: T1, Cynomolgus MUC1 his (Cat. # MU1-C52H5, Acro) (cynomolgus)
T1 construct: His-tagged, bought; also called Cyno MUC1-His
Test: SPR (Biacore T200), antibody captured on Protein A

- Kd: 18.9 nM
B1: M4-H1L1 (antibody, human IgG1, kappa)
heavy: not shown
light: DIQMTQSPSSLSASVGDRVTITCSASSSVFNMNWYQQKPGKSPKLWIYDISKLASGVPSRFSGSGSGTDFTLTISSLQPEDFATYYCQQRSFYPPTFGGGTKVEIKRTVAAPSVFIFPPSDEQLKSGTASVVCLLNNFYPREAKVQWKVDNALQSGNSQESVTEQDSKDSTYSLSSTLTLSKADYEKHKVYACEVTHQGLSSPVTKSFNRGEC
notes: humanized IgG1/kappa

- Kd: 17.8 nM
B2: M4H1L1-ZalH4 (bispecific antibody, human IgG1, kappa)
heavy: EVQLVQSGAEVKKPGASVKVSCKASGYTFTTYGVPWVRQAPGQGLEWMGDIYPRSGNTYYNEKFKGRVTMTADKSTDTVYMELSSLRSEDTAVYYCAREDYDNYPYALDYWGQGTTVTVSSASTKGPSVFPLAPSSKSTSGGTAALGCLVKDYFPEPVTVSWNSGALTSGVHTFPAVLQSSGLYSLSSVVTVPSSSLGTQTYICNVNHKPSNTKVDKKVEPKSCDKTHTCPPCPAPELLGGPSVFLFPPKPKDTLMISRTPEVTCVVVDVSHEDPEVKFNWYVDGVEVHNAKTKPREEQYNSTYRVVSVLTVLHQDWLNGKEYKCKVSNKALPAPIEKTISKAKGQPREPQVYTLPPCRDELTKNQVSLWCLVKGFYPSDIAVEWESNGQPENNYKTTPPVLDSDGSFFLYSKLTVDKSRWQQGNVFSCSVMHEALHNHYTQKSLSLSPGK
light: B1 light
chain 1: not shown
chain 2: DIQLTQSPSSLSASVGDRVTITCRASQDISSALVWYQQKPGKAPKLLIYDASSLESGVPSRFSGSESGTDFTLTISSLQPEDFATYYCQQFNSYPLTFGGGTKVEIKGGGGSSGAPRFLTRPKASVVSVGKDATLSCQIVGNPFPQVSWEKDKQPVTAGVRFRLAQDGDLYRLKILDLQLSDSGQYVCRARNAHGEAFACLGLQVDAEA
